Data as given in patent US20220026415A1, “A METHOD FOR SCREENING A THERAPEUTIC AGENT FOR CANCER USING BINDING INHIBITOR OF CYCLIN-DEPENDENT KINASE 1 (CDK1)-CYCLIN B1 AND RETINOIC ACID RECEPTOR RESPONDER 1 (RARRES1) GENE KNOCKOUT ANIMAL MODEL” (NATIONAL CANCER CENTER, priority 2018, published 2022).

Test system: HEK293 cells
Experiment: Cell cycle distribution after release from double thymidine block, flow cytometry
Type: cell-based
Procedure: In the case of a double thymidine block (DTB) synchronized at the G1/S boundary, HEK293 cells were incubated with 2 mM thymidine for 16 hours and maintained in a normal medium for 10 hours, and then 2 mM thymidine was further added thereto for 16 hours.
For analysis of cell cycles or sub-G1 DNA contents, cells were immobilized with 80% ice-cold ethanol, and stored at 4° C. The cells were stained with PBS containing 50 ug/ml of propidium iodide (PI) and 100 ug/ml of RNase A at 37° C. for 30 minutes. DNA content was analyzed by FACS Calibur flow cytometry and the results thereof were analyzed using Cellquest software (Becton-Dickinson Immunocytometry Systems, San Diego, Calif.) and Modfit LT 3.3 software. At least 10,000 cells were analyzed per sample.
To evaluate whether the reduced cell growth observed in RARRES1-overexpressing cells was due to altered cell cycle progression, HEK293 cells were transfected with green fluorescent protein (GFP) tagged-RARRES1 or -empty vector (Ctrl) according to the method of Example 1-1, and the cells were observed by live cell imaging according to Example 1-6. From now on, all data shown was regarded as isoform 1 since there was no difference between the two isoforms of RARRES1 in the above experiments, and it was named ‘RARRES1.’ In HEK293 cells transfected with a GFP control (Ctrl) according to the method of Example 1-1, the cells underwent normal cell cycle progression. A cell entered into mitosis (round shape) within 1 hour, and was separated into two daughter cells within at least 2.5 hours (see FIG. 5A, top panel). […] To confirm mitotic arrest induced by RARRES1 overexpression, GFP-control or GFP-RARRES1-overexpressing 293 cells and 293 cells transfected with a red fluorescent protein (RFP) lentivirus used to label GFP non-transfected cell, according to Example 1-3 were co-cultured, and changes in the number of fluorescence-expressing cells (see FIG. 5B) were monitored. […] Under co-culture conditions of GFP-control coupled with RFP virus-transfected cells, the numbers of both fluorescence-expressing cells were increased over time. […]

B1: RARRES1: RARRES1 isoform 1 overexpressed in HEK293 cells by transfection with an expression vector (protein)
chain: MQPRRQRLPAPWSGPRGPRPTAPLLALLLLLAPVAAPAGSGDPDDPGQPQDAGVPRRLLQQAARAALHFFNFRSGSPSALRVLAEVQEGRAWINPKEGCKVHVVFSTERYNPESLLQEGEGRLGKCSARVFFKNQKPRPTINVTCTRLIEKKKRQQEDYLLYKQMKQLKNPLEIVSIPDNHGHIDPSLRLIWDLAFLGSSYVMWEMTTQVSHYYLAQLTSVRQWKTNDDTIDFDYTVLLHELSTQEIIPCRIHLVWYPGKPLKVKYHCQELQTPEEASGTEEGSAVVPTELSNF
**Q.** Which results are given for B1?
**A.** cells in the G2/M phases (4 hours after release from DTB, control 21.38%): 29.85%; cells in the G2/M phases (6 hours after release from DTB, control 77.41%): 80.91%; cells in the G2/M phases (8 hours after release from DTB, control 45.47%): 54.46%
